Data published in the Immune Epitope Database (IEDB).

Tests used:
Assay in all cases: IEDB peptide-MHC binding, purified MHC/competitive/radioactivity; filed as Kd, often an IC50 or EC50 that approximates it; ≥ and ≤ were set here for values at or beyond the usual limits of such assays
HLA-A*03:01 = target: HLA-A*03:01
HLA-A*68:01 = target: HLA-A*68:01
HLA-A*11:01 = target: HLA-A*11:01
HLA-A*31:01 = target: HLA-A*31:01
HLA-A*33:01 = target: HLA-A*33:01
[1] = source organism: Mammarenavirus juninense
[2] = source organism: Vaccinia virus WR
[3] = source organism: SARS coronavirus Tor2
[4] = source organism: Mammarenavirus brazilense
[5] = source organism: Dengue virus 1 Brazil/97-11/1997
[6] = source organism: Mammarenavirus machupoense
[7] = source organism: Dengue virus 2 Jamaica/1409/1983
[8] = source organism: Lymphocytic choriomeningitis virus (strain WE)
[9] = source organism: Lymphocytic choriomeningitis virus (strain Armstrong)
[10] = source organism: Dengue virus 3 Martinique/1243/1999
[11] = source organism: Dengue virus 4 Dominica/814669/1981
[12] = source organism: Mammarenavirus guanaritoense
[13] = source organism: Dengue virus 4 Philippines/H241/1956

Sequence | Kd (HLA-A*03:01; [2]) [µM] | Kd (HLA-A*68:01; [2]) [µM] | Kd (HLA-A*11:01; [2]) [µM] | Kd (HLA-A*31:01; [2]) [µM] | Kd (HLA-A*33:01; [2]) [µM] | other results
PLLCTLNKSH |  |  |  |  |  | Kd (HLA-A*03:01; [1]): ≥ 70 µM; Kd (HLA-A*68:01; [1]): ≥ 70.1 µM; Kd (HLA-A*11:01; [1]): ≥ 69.7 µM; Kd (HLA-A*31:01; [1]): ≥ 70 µM; Kd (HLA-A*33:01; [1]): ≥ 70 µM
DVDIYDAVR | ≥ 53.3 | 0.179 | ≥ 77.9 | 14 | 2.28 | 
KSPLPSLEY | 0.278 | ≥ 77.7 | 0.228 | 7.39 | ≥ 77.7 | 
LQFAYSNRNR |  |  |  |  |  | Kd (HLA-A*03:01; [3]): 0.89 µM; Kd (HLA-A*68:01; [3]): 1.05 µM; Kd (HLA-A*11:01; [3]): 1.73 µM; Kd (HLA-A*31:01; [3]): 0.00559 µM; Kd (HLA-A*33:01; [3]): 1.27 µM
MVMCGGSLY |  |  |  |  |  | Kd (HLA-A*03:01; [3]): 0.0419 µM; Kd (HLA-A*68:01; [3]): 0.0226 µM; Kd (HLA-A*11:01; [3]): 0.0739 µM; Kd (HLA-A*31:01; [3]): 0.0704 µM; Kd (HLA-A*33:01; [3]): 4.62 µM
SNSKEIPSFR |  |  |  |  |  | Kd (HLA-A*03:01; [4]): ≥ 33.3 µM; Kd (HLA-A*68:01; [4]): 0.315 µM; Kd (HLA-A*11:01; [4]): 1.88 µM; Kd (HLA-A*31:01; [4]): 0.65 µM; Kd (HLA-A*33:01; [4]): 0.54 µM
MTSWLDFSH |  |  |  |  |  | Kd (HLA-A*03:01; [1]): 0.548 µM; Kd (HLA-A*68:01; [1]): 0.00336 µM; Kd (HLA-A*11:01; [1]): 0.116 µM; Kd (HLA-A*31:01; [1]): 0.176 µM; Kd (HLA-A*33:01; [1]): 13.6 µM
FALKKLIIDR | ≥ 70.1 | 0.55 | 2.1 | 1.07 | 3.3 | 
MFLTSVINR | 0.355 | 0.0188 | 0.283 | 0.00116 | 0.000841 | 
RLKMDKLTLK |  |  |  |  |  | Kd (HLA-A*03:01; [5]): 0.013 µM
LSLSNLDFR | ≥ 78 | 0.3 | 0.349 | 0.0217 | 0.675 | 
STSLSEEFFH |  |  |  |  |  | Kd (HLA-A*03:01; [6]): ≥ 43.1 µM; Kd (HLA-A*68:01; [6]): 13.2 µM; Kd (HLA-A*11:01; [6]): 4.31 µM; Kd (HLA-A*31:01; [6]): 14.7 µM; Kd (HLA-A*33:01; [6]): ≥ 64.8 µM
LLIWAYLSKK | 0.0421 | 0.363 | 0.124 | 1.98 | 2.34 | 
NLKAMLYIIR | 8.53 | 0.209 | 10.9 | 4.84 | 0.133 | 
KQYDSTDFK | 0.0618 | 1.86 | 0.0335 | 0.0709 | ≥ 25.5 | 
SVNEYHMLK | 0.0061 | 0.00224 | 0.00223 | 0.00692 | 0.0857 | 
SSKGNCAIK | 6.77 | 3.48 | 2.15 | 2.15 | 17.7 | 
TFKIDAVRYY | ≥ 70.1 | 1.43 | 12.1 | ≥ 20.7 | ≥ 43.4 | 
LWRTLGRNKR |  |  |  |  |  | Kd (HLA-A*31:01; source organism: Dengue virus 3 Sri Lanka/1266/2000): 0.712 µM
TYLALMATFK |  |  |  |  |  | Kd (HLA-A*33:01; [5]): 0.011 µM
IQRFSSLRR | 0.125 | 11.9 | 1.01 | 0.0559 | ≥ 30.4 | 
RLSILSKDK | 0.613 | 1.08 | 1.21 | 10.7 | 12.9 | 
AISGDDCVVK |  |  |  |  |  | Kd (HLA-A*11:01; [7]): 2.07 µM
YLIHDNIMY | 10.6 | ≥ 26.9 | 14.9 | ≥ 77.9 | ≥ 77.7 | 

Sequence | Kd (HLA-A*03:01; [2]) [µM] | Kd (HLA-A*68:01; [2]) [µM] | Kd (HLA-A*11:01; [2]) [µM] | Kd (HLA-A*31:01; [2]) [µM] | Kd (HLA-A*33:01; [2]) [µM] | other results
AARILSEKRK | 7.88 | 8.05 | 3.14 | ≥ 63.7 | ≥ 70 | 
SRILFAQEK |  |  |  |  |  | Kd (HLA-A*03:01; [8]): 15.7 µM; Kd (HLA-A*68:01; [8]): 7.33 µM; Kd (HLA-A*11:01; [8]): 0.773 µM; Kd (HLA-A*31:01; [8]): ≥ 38.7 µM; Kd (HLA-A*33:01; [8]): ≥ 77.7 µM
MATYGWNLVK |  |  |  |  |  | Kd (HLA-A*11:01; [5]): 0.37 µM
SVLCVKKFYK | 0.00114 | 0.00101 | 0.000302 | 0.000785 | 0.0122 | 
AMDEFIQRYK |  |  |  |  |  | Kd (HLA-A*03:01; [3]): 0.039 µM; Kd (HLA-A*68:01; [3]): 8.3 µM; Kd (HLA-A*11:01; [3]): 0.059 µM; Kd (HLA-A*31:01; [3]): 0.221 µM; Kd (HLA-A*33:01; [3]): 13.3 µM
LTKFVSAALH |  |  |  |  |  | Kd (HLA-A*68:01; [9]): 0.221 µM; Kd (HLA-A*31:01; [9]): 0.864 µM; Kd (HLA-A*33:01; [9]): 3.76 µM
QTVDFTDCR | ≥ 35.5 | 0.00157 | 0.348 | 0.722 | 5.81 | 
SVYAWERKK |  |  |  |  |  | Kd (HLA-A*03:01; [3]): 0.134 µM; Kd (HLA-A*68:01; [3]): 5.32 µM; Kd (HLA-A*11:01; [3]): 0.23 µM; Kd (HLA-A*31:01; [3]): 1.94 µM; Kd (HLA-A*33:01; [3]): ≥ 38.7 µM
QAAILMGLDK |  |  |  |  |  | Kd (HLA-A*68:01; [5]): 0.377 µM
VTAASAAQR |  |  |  |  |  | Kd (HLA-A*68:01; [10]): 0.0432 µM
SAKLRWFVER |  |  |  |  |  | Kd (HLA-A*31:01; [7]): 0.0263 µM; Kd (HLA-A*33:01; [7]): 0.0465 µM
WYLWEVKKQR |  |  |  |  |  | Kd (HLA-A*33:01; [7]): 0.0397 µM
KPKPAVRFAI |  |  |  | ≥ 70 |  | 
EFKEFAAGRR |  |  |  |  |  | Kd (HLA-A*33:01; [5]): 0.0376 µM
TANPVVTKK |  |  |  |  |  | Kd (HLA-A*11:01; [10]): 0.245 µM
TLGWLLQTPK |  |  |  |  |  | Kd (HLA-A*03:01; source organism: Homo sapiens): 0.0075 µM
MLNIMNRRK |  |  |  |  |  | Kd (HLA-A*03:01; [5]): 0.021 µM
GYVLGVFLR |  |  |  |  |  | Kd (HLA-A*31:01; [11]): 0.0532 µM; Kd (HLA-A*33:01; [11]): 1.82 µM
ACRCGRFQK |  |  |  |  |  | Kd (HLA-A*03:01; [12]): 3.57 µM; Kd (HLA-A*11:01; [12]): 5.13 µM; Kd (HLA-A*31:01; [12]): 1.44 µM; Kd (HLA-A*33:01; [12]): ≥ 27.3 µM
RQMEGEGIFK |  |  |  |  |  | Kd (HLA-A*03:01; [7]): 0.0215 µM; Kd (HLA-A*11:01; [7]): 0.127 µM
VTHSSAAQR |  |  |  |  |  | Kd (HLA-A*68:01; [7]): 0.042 µM; Kd (HLA-A*31:01; [7]): 0.0258 µM
AALAFHLTSR |  |  |  |  |  | Kd (HLA-A*31:01; [10]): 0.0175 µM
YYCGGLKNVR |  |  |  |  |  | Kd (HLA-A*33:01; [7]): 0.0031 µM
NTTSKMLLNR |  |  |  |  |  | Kd (HLA-A*68:01; [13]): 0.179 µM; Kd (HLA-A*33:01; [13]): 0.1 µM
